Laboratory results published in the supplement of paper PMC7877785.
± gives the uncertainty stated by the source.

Assay: self-splicing fitness, log relative to wild type (ln ratio); higher = more splicing; Tetrahymena group I intron in knt gene, E. coli kanamycin selection, DiMSum; sequences stand for … in CUCUCU…GGAGGGAAAAGUUAUCAGGCAUGCACCUGGUAGCUAGUCUUUAAACCAAUAGAUUGCAUCGGUUUAAAAGGCAAGACCGUCAAAUUGCGGGAAAGGGGUCAACAGCCGUUCAGUACCAAGUCUCAGGGGAAACUUUGAGAUGGCCUUGCAAAGGGUAUGGUAAUAAGCUGACGGACAUGGUCCUAACCACGCAGCCAAGUCCUAAGUCAACAGAUCUUCUGUUGAUAUGGAUGCAGUUCACAGACUAAAUGUCGGUCGGGGAAGAUGUAUUCUUCUCAUAAGAUAUAGUCGGACCUCUCCUUAAUGGGAGCUAGCGGAUGAAGUGAUGCAACACUGGAGCCGCUGGGAACUAAUUUGUAUGCGAAAGUAUAUUGAUUAGUUUUGGAGUACUCGUGGUCG
Outline: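 DiMSum derived fitness as the error-weighted combination of fold changes across replicates, kanamycin versus no kanamycin, normalised to wild type. E. coli BL21(DE3) held the library, which randomised all eight P1ex-region intron nucleotides within the knt kanamycin-resistance gene on pET-22b(+). Six replicate transformations grew overnight at 37°C or 30°C on LB agar with or without 25 μg/mL kanamycin, also containing 100 μg/mL carbenicillin, 50 μM IPTG and 0.2% rhamnose, and pooled colonies were amplicon-sequenced on an Illumina HiSeq 2500.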

Sequence	self-splicing fitness (ln) (30 °C)	self-splicing fitness (ln) (37 °C)
AAAAAGCAAUAUUACGAGAC	-3.02 ± 0.19	-2.47 ± 0.24
AAAAAGCAAUAUUACGAGGU	-4.25 ± 0.29	-3.5 ± 0.23
AAAAAGCAAUAUUACGAUAA	-1.03 ± 0.074	-1.1 ± 0.093
AAAAAGCAAUAUUACGCGGU	-2.38 ± 0.13	-0.538 ± 0.11
AAAAAGCAAUAUUACGCUGA	-4.19 ± 0.34	-1.7 ± 0.17
AAAAAGCAAUAUUACGCUGC	-3.34 ± 0.4	–
AAAAAGCAAUAUUACGGAAG	-2.88 ± 0.16	-1.38 ± 0.14
AAAAAGCAAUAUUACGGCAC	-0.499 ± 0.076	-0.593 ± 0.1
AAAAAGCAAUAUUACGGCCG	-0.279 ± 0.092	0.159 ± 0.13
AAAAAGCAAUAUUACGGCUA	-0.166 ± 0.089	0.116 ± 0.11
AAAAAGCAAUAUUACGGGGC	-3.33 ± 0.16	-2.43 ± 0.18
AAAAAGCAAUAUUACGGGUC	-3.39 ± 0.16	-2.7 ± 0.26
AAAAAGCAAUAUUACGGUAU	-2.2 ± 0.08	-0.966 ± 0.08
AAAAAGCAAUAUUACGGUCU	-0.167 ± 0.057	-0.0164 ± 0.073
AAAAAGCAAUAUUACGGUUU	-0.478 ± 0.05	-0.225 ± 0.064
AAAAAGCAAUAUUACGUCAU	-2.2 ± 0.08	-1.14 ± 0.092
AAAAAGCAAUAUUACGUCCG	-1.05 ± 0.11	-0.195 ± 0.13
AAACAGCAAUAUUACGAAAU	-2.72 ± 0.13	-1.48 ± 0.13
AAACAGCAAUAUUACGAACU	-0.252 ± 0.065	-0.265 ± 0.077
AAACAGCAAUAUUACGAAGU	-3.41 ± 0.2	-2.21 ± 0.17
AAACAGCAAUAUUACGAAUA	-2.67 ± 0.14	-1.1 ± 0.084
AAACAGCAAUAUUACGACAG	-1.5 ± 0.082	-1.25 ± 0.1
AAACAGCAAUAUUACGACCU	-0.0846 ± 0.062	-0.604 ± 0.076
AAACAGCAAUAUUACGAUAU	-1.82 ± 0.08	-0.63 ± 0.097
AAACAGCAAUAUUACGCAAU	-2.97 ± 0.081	-1.4 ± 0.076
AAACAGCAAUAUUACGGACA	-1.54 ± 0.092	-1.1 ± 0.096

Sequence	self-splicing fitness (ln) (30 °C)	self-splicing fitness (ln) (37 °C)
AAACAGCAAUAUUACGGAGC	-3.7 ± 0.28	-2.75 ± 0.22
AAACAGCAAUAUUACGGCGA	-0.923 ± 0.074	-0.737 ± 0.085
AAACAGCAAUAUUACGGCUG	-3.47 ± 0.25	-2.07 ± 0.23
AAACAGCAAUAUUACGGGUA	-2.58 ± 0.093	-1.31 ± 0.072
AAACAGCAAUAUUACGUAAU	-1.79 ± 0.051	-0.491 ± 0.064
AAACAGCAAUAUUACGUACC	-1.52 ± 0.11	-0.543 ± 0.12
AAACAGCAAUAUUACGUACU	-0.273 ± 0.06	-0.159 ± 0.073
AAACAGCAAUAUUACGUGGC	-3.05 ± 0.2	-2.35 ± 0.14
AAAGAGCAAUAUUACGACCA	-1.98 ± 0.18	–
AAAGAGCAAUAUUACGAGCG	-2.08 ± 0.21	-2.17 ± 0.24
AAAGAGCAAUAUUACGAGGA	-2.26 ± 0.31	-2.6 ± 0.27
AAAGAGCAAUAUUACGAGUA	-3.87 ± 0.46	-2.58 ± 0.28
AAAGAGCAAUAUUACGAGUU	-3 ± 0.17	-1.92 ± 0.2
AAAGAGCAAUAUUACGAUAC	–	-2.18 ± 0.41
AAAGAGCAAUAUUACGCCAC	-3.45 ± 0.49	-2.83 ± 0.47
AAAGAGCAAUAUUACGCGAA	-2.83 ± 0.2	-1.46 ± 0.24
AAAGAGCAAUAUUACGCGGG	-4.16 ± 0.28	-3.54 ± 0.33
AAAGAGCAAUAUUACGCUCG	-2.17 ± 0.12	-0.963 ± 0.12
AAAGAGCAAUAUUACGGCUU	-1.05 ± 0.11	-0.397 ± 0.14
AAAGAGCAAUAUUACGGUAU	-3.02 ± 0.17	-2.28 ± 0.15
AAAGAGCAAUAUUACGUAAG	-3.48 ± 0.18	-2.57 ± 0.22
AAAGAGCAAUAUUACGUACC	-3.04 ± 0.19	-2.03 ± 0.28
AAAGAGCAAUAUUACGUCUU	-2.22 ± 0.091	-1.41 ± 0.1
AAAGAGCAAUAUUACGUUUG	-2.74 ± 0.21	-1.77 ± 0.22
AAAUAGCAAUAUUACGAAUA	-1.7 ± 0.16	-1.18 ± 0.15
AAAUAGCAAUAUUACGAAUU	-1.65 ± 0.1	-0.368 ± 0.12

Sequence	self-splicing fitness (ln) (30 °C)	self-splicing fitness (ln) (37 °C)
AAAUAGCAAUAUUACGACGG	-0.995 ± 0.1	-0.783 ± 0.16
AAAUAGCAAUAUUACGAGUC	-3.89 ± 0.33	-2.2 ± 0.36
AAAUAGCAAUAUUACGAUUG	-2.16 ± 0.15	-1.31 ± 0.18
AAAUAGCAAUAUUACGCACG	-1.59 ± 0.13	-0.271 ± 0.12
AAAUAGCAAUAUUACGCAGG	-1.68 ± 0.12	-1.65 ± 0.11
AAAUAGCAAUAUUACGCAUC	-3.65 ± 0.47	-0.111 ± 0.22
AAAUAGCAAUAUUACGCCGA	-2.41 ± 0.19	-0.837 ± 0.17
AAAUAGCAAUAUUACGCGGG	-3.02 ± 0.19	-1.23 ± 0.12
AAAUAGCAAUAUUACGGAGA	-1.86 ± 0.23	-2.11 ± 0.3
AAAUAGCAAUAUUACGGAUC	-1.18 ± 0.11	-0.569 ± 0.15
AAAUAGCAAUAUUACGGAUG	-2.5 ± 0.16	-0.984 ± 0.12
AAAUAGCAAUAUUACGGCAA	-0.542 ± 0.071	0.146 ± 0.075
AAAUAGCAAUAUUACGGCCA	-0.522 ± 0.15	-0.523 ± 0.18
AAAUAGCAAUAUUACGGGAU	-2.7 ± 0.099	-1.03 ± 0.11
AAAUAGCAAUAUUACGGGGA	-3.71 ± 0.25	-2.86 ± 0.19
AAAUAGCAAUAUUACGGGGC	-3.72 ± 0.32	-2.34 ± 0.29
AAAUAGCAAUAUUACGGGUG	-1.49 ± 0.11	-1.65 ± 0.14
AAAUAGCAAUAUUACGGUGA	-1.69 ± 0.13	-0.521 ± 0.11
AAAUAGCAAUAUUACGUAGU	-3.11 ± 0.099	-1.79 ± 0.095
AAAUAGCAAUAUUACGUAUA	-1.63 ± 0.12	-0.558 ± 0.12
AAAUAGCAAUAUUACGUGGC	-4.1 ± 0.28	-1.43 ± 0.2
AAAUAGCAAUAUUACGUUUG	-2.04 ± 0.1	-1.49 ± 0.11
AACAAGCAAUAUUACGAAUA	-1.97 ± 0.1	-1.24 ± 0.11
AACAAGCAAUAUUACGACCG	-0.711 ± 0.12	0.209 ± 0.16
AACAAGCAAUAUUACGACCU	0.219 ± 0.086	0.125 ± 0.1
